In paper PMC7817217 (2020) one finds Kd data, which are given here for one molecule.

The target of this assay is SARS-CoV-2 spike protein receptor binding domain (RBD) (SARS-CoV-2, UniProt P0DTC2 319-541). Kind of assay: SPR. On the technique in general: SPR reads the build-up and loss of mass on a sensor chip optically.

B1: bACE2-Rm residues 19 to 615 fused to the mouse Fc tag (bACE2-Rm-mFc) (Fc fusion)
chain: STTEDEAKKFLDKFNSKAEDLSYESSLASWDYNTNISDENVQKMDEAGAKWSAFYEEQSKLAKNYPLEEIQNDTVKRQLQILQQSGSPVLSEDKSKRLNSILNAMSTIYSTGKVCKPNNPQECLLLEPGLDNIMGTSKDYNERLWAWEGWRAEVGKQLRPLYEEYVVLKNEMARGYHYEDYGDYWRRDYETEESSGPGYSRDQLMKDVDRIFTEIKPLYEHLHAYVRAKLMDTYPLHISPTGCLPAHLLGDMWGRFWTNLYPLTVPFGQKPNIDVTDAMLNQGWDANRIFKEAEKFFVSVSLPKMTEGFWNKSMLTEPGDGRKVVCHPTAWDLGKGDFRIKMCTKVTMEDFLTAHHEMGHIQYDMAYASQPYLLRNGANEGFHEAVGEVMSLSVATPKHLKTMGLLSPDFREDDETEINFLLKQALNIVGTLPFTYMLEKWRWMVFKGEIPKEEWMKKWWEMKREIVGVVEPVPHDETYCDPASLFHVANDYSFIRYYTRTIFEFQFHEALCRIAQHNGPLHKCDISNSTDAGKKLHQMLSVGKSQAWTKTLEDIVDSRNMDVGPLLRYFKPLYTWLQEQNRKSYVGWNTDWSPYAD
As usually defined, the Kd is the equilibrium constant for the complex coming apart. A lower Kd goes with a tighter complex. Molecule B1 returned a Kd of 500 nM.
